Eight sequences from patent US20180119149 can be followed below.

Where two headings read alike, the source gives them in different places.

Data set [1] concerns the target CTLA-4 (UniProt P16410). The note with it: bulk Kd, bead-based fluorescence.
The target in data set [2] is HER2 (ErbB2) (Homo sapiens) (UniProt P04626).
Data set [3] concerns the target T1, ErbB4 (HER4) (UniProt Q15303).
T1 sequence: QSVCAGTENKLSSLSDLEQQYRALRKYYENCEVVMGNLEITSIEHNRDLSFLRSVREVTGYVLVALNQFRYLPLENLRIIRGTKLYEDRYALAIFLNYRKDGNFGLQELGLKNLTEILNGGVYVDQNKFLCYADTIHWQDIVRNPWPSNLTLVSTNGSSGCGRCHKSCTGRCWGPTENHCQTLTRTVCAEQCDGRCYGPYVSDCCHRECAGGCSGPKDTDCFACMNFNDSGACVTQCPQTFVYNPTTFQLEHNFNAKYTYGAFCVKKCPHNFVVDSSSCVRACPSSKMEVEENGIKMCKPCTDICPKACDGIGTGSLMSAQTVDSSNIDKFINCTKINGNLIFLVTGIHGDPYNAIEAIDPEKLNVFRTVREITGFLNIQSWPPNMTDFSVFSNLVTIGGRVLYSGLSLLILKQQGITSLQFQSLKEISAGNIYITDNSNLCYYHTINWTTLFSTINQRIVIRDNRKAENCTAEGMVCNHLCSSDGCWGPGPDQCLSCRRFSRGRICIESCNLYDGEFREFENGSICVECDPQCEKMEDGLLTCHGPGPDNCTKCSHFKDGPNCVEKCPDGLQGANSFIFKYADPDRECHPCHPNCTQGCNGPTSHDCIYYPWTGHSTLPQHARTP
As to conditions: HER2 about 4 times higher.

In data set [4] the target is ErbB3 (HER3) (UniProt P21860). As to conditions: HER2 about 4 times higher.
In data set [5] the target is EGFR (UniProt P00533). As to conditions: HER2 about 4 times higher.
Data set [6] has as its target HER2 (ErbB2) (Homo sapiens) (UniProt P04626). The note with it: bulk Kd, with formaldehyde cross-linking; about 5-fold higher Kd without.
For data set [7], the system named is IgE (Homo sapiens). As to conditions: bulk Kd, bead-based fluorescence.
Data set [8] concerns the target PD-L1 (UniProt Q9NZQ7). The note with it: bulk Kd, bead-based fluorescence.
Data set [9] deals with PDGF-BB (Homo sapiens) (UniProt P01127). The note with it: bulk Kd, bead-based fluorescence.
Data set [10] deals with ubiquitin (UniProt P0CG48). As to conditions: bulk Kd, bead-based fluorescence.
In data set [11] the target is PDGF-BB (Homo sapiens) (UniProt P01127). As to conditions: unselected library on PDGF-BB beads, with formaldehyde cross-linking.

PDGF-BB (Homo sapiens), sequence (P01127 82-190): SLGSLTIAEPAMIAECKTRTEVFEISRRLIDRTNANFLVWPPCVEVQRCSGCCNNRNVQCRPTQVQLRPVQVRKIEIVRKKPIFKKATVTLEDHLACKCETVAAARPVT
PD-L1, sequence (Q9NZQ7 19-238): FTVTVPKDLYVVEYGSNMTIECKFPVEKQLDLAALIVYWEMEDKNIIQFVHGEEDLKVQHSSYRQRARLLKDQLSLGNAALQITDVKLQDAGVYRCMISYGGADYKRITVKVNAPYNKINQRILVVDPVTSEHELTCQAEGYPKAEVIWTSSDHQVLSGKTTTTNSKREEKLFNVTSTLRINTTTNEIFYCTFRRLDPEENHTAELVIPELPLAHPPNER
ErbB3 (HER3), sequence (P21860 20-643): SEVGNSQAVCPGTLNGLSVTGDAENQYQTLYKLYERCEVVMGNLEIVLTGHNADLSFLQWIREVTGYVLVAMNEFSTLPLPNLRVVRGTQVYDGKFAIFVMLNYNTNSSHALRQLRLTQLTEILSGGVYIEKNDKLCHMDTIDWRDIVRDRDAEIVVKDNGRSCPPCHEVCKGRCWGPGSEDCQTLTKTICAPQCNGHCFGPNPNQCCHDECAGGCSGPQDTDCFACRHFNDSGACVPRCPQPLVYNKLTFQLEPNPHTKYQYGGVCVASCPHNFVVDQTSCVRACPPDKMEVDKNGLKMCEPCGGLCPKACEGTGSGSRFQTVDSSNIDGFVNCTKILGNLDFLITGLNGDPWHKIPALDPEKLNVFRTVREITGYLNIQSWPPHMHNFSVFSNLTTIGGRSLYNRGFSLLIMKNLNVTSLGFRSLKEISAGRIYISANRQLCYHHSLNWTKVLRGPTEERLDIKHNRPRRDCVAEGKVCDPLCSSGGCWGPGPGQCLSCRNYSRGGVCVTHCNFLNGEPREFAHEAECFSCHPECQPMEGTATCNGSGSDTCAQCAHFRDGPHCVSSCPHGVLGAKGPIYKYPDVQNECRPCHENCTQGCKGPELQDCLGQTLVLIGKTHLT
CTLA-4, sequence (P16410 36-161): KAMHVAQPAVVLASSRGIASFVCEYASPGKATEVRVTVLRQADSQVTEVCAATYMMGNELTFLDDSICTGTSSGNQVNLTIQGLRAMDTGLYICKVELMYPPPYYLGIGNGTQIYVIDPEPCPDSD

The term Kd denotes the concentration at which binding is half-saturated. Read a low Kd as a tighter complex. “AGCAGCACAGAGGTCAGATGNNNNNNNNNNNNNNNNNNNNNNNNNNNNNNNNNNNNNNNNCCTATGCGTGCTACCGTGAA [CTLA-4 round 3 pool]”: the Kd in data set [1] worked out at 10.4 nM.

The sequence “AGCAGCACAGAGGTCAGATGNNNNNNNNNNNNNNNNNNNNNNNNNNNNNNNNNNNNNNNNCCTATGCGTGCTACCGTGAA [HER2 round 1 pool]” gave a Kd in data set [2] (bulk Kd, with formaldehyde cross-linking) of 22.1 nM. On to “AGCAGCACAGAGGTCAGATGNNNNNNNNNNNNNNNNNNNNNNNNNNNNNNNNNNNNNNNNCCTATGCGTGCTACCGTGAA [HER2 round 3 pool]”, for which the binding signal (fraction of HER2 signal) in [3], in [4] and in data set [5] was 0.25 throughout. This sequence also yielded a Kd in data set [6] of 6.8 nM. On to “AGCAGCACAGAGGTCAGATGNNNNNNNNNNNNNNNNNNNNNNNNNNNNNNNNNNNNNNNNCCTATGCGTGCTACCGTGAA [IgE round 3 pool]”, for which, in data set [7], the Kd came to 8.4 nM. In data set [8], “AGCAGCACAGAGGTCAGATGNNNNNNNNNNNNNNNNNNNNNNNNNNNNNNNNNNNNNNNNCCTATGCGTGCTACCGTGAA [PD-L1 round 3 pool]” returned a Kd of 15.5 nM.

For “AGCAGCACAGAGGTCAGATGNNNNNNNNNNNNNNNNNNNNNNNNNNNNNNNNNNNNNNNNCCTATGCGTGCTACCGTGAA [PDGF-BB round 3 pool]”, the Kd in data set [9] was 1.9 nM. The sequence “AGCAGCACAGAGGTCAGATGNNNNNNNNNNNNNNNNNNNNNNNNNNNNNNNNNNNNNNNNCCTATGCGTGCTACCGTGAA [ubiquitin round 3 pool]” gave a Kd in [10] of 11.9 nM. “AGCAGCACAGAGGTCAGATGNNNNNNNNNNNNNNNNNNNNNNNNNNNNNNNNNNNNNNNNCCTATGCGTGCTACCGTGAA [unselected ssDNA library (N40)]” showed a binding signal in data set [11] below 2 % bound. In data set [2] (no obvious binding), this sequence registered a dissociation constant (Kd) above 1000 nM.
